Key:
[1] = target: prothrombin with an Alexa532 on the 271 cleavage site that was attached by mutating the arginine to a cysteine (UniProt P00734); test: FRET, Alexa488-FVa donor and Alexa532 prothrombin acceptor, buffer control
[2] = target: prothrombin with an Alexa532 on the 271 cleavage site that was attached by mutating the arginine to a cysteine (UniProt P00734); test: FRET, Alexa488-FVa donor and Alexa532 prothrombin acceptor, with 2.5 µM RNA aptamer T18.3

FVa with Alexa488 on the 539 residue (from UniProt P12259 29-2224)
emission percentage (FRET) [1]: 16.3%
emission percentage (FRET) [2]: 17.5%
